Laboratory results taken from patent publication US20230250188A1 (NATIONAL UNIVERSITY CORPORATION KOCHI UNIVERSITY, published 2023).

T1: human GPC1 on the surface of GPC1-positive cancer cells (TE8, TE14, BxPC-3) (human, UniProt P35052 24-530)
T1 construct: Endogenous GPC1 of human esophageal (TE8, TE14) and pancreatic (BxPC-3) cancer cell lines; also called GPC1 on the surface of the TE8 cell; Glypican-1
T1 sequence: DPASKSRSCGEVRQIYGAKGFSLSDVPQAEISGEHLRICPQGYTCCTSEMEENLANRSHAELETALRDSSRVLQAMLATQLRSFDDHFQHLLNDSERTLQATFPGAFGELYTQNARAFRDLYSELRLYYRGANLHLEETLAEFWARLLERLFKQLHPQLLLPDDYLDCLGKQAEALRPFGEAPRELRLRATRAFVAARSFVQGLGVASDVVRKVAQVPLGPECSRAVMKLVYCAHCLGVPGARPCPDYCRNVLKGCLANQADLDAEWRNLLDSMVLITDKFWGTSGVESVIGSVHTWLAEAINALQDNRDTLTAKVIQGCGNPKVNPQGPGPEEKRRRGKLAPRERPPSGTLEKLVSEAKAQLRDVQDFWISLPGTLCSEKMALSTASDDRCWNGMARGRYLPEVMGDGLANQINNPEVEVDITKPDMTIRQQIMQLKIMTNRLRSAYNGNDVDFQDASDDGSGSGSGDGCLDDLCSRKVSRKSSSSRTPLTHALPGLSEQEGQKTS

T2: recombinant human GPC1 protein (R&D Systems) (human, UniProt P35052 24-530)
T2 construct: Bought recombinant protein (R&D Systems); also called human GPC-1 antigen; Glypican-1
T2 sequence: T1 sequence

T3: MC38-mGPC1
T3 mouse Glypican-1: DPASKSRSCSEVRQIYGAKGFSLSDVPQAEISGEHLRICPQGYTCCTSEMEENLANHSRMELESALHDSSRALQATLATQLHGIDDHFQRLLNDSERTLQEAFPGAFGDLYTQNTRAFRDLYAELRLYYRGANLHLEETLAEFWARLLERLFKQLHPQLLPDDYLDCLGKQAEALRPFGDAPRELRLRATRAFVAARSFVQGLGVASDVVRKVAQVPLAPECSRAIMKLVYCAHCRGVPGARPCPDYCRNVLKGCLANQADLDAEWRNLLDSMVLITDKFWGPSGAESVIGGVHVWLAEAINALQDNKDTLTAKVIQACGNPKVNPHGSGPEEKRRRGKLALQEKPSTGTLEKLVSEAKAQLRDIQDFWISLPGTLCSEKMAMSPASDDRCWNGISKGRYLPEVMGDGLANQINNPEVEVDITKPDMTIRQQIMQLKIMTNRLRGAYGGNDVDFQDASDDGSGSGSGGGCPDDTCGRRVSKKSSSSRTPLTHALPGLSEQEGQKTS

B1: humanized anti-GPC1 antibody (clone T2) (antibody, human IgG4 S228P, kappa, V domains shown)
VH: QVQLVQSGAEVKKPGASVKVSCKASGYTFTGYYMHWVRQAPGQGLEWMGEINPSTGDTTYNQKFKARVTMTRDTSTSTVYMELSSLRSEDTAVYYCAREKRDDGVFAYWGQGTLVTVSS
VL: DIVMTQSPSFLSASVGDRVTITCRASQGISSYLVWYQQKPGKPPKLLIYSASVLQSGVPSRFSGRGYGTDFTLTISSLQPEDFATYYCQQSFSIPPVTFGGGTKVEIKR
notes: IgG; also called humanized anti-GPC1 antibody (T2); unlabeled antibody
B2: humanized anti-GPC1 monoclonal antibody clone T57 (antibody, human IgG4 S228P, kappa, V domains shown)
VH: B1 VH
VL: EIVMTQSPSSLSASVGDRVTISCRTSQTIRHYLNWYQQKPGKAPKLLIYDASNLKTGVPSRFSGSGSGTSFTLTISSLQPDDFATYYCQQSYSTPRTFGQGTKVEIKR
notes: IgG
B3: humanized anti-GPC1 monoclonal antibody clone T56 (antibody, human IgG4 S228P, kappa, V domains shown)
VH: B1 VH
VL: DIVMTQSPSTLSASVGDRVTIICRASQSIGPWLAWYQQKSGKAPKLLIYGASNLQSGVPSRFSGSGYGTDFTLTISSLQPEDFATYYCQQTSSAPFTFGPGTKVDIKR
notes: IgG
B4: humanized anti-GPC1 monoclonal antibody clone T8 (antibody, human IgG4 S228P, kappa, V domains shown)
VH: B1 VH
VL: EIVMTQSPSSVSASVGDRVTITCRTSQSISSYLNWYQLRPGRAPKLLIYAASNLQSGVPSRFSGSGFGTDFTLTISSVQPEDFATYYCQQAKSYPLTFGGGTKVDIKR
notes: IgG
B5: humanized anti-GPC1 monoclonal antibody clone T36 (antibody, human IgG4 S228P, kappa, V domains shown)
VH: B1 VH
VL: NIQMTQSPSSLSASVGDRVTITCQASQDISNYLNWYQQRPGKAPQLLIYGASNLERGVPSRFSGSGFGTDFTLTISSVQPEDFATYYCQQAKSYPLTFGGGTKVEIKR
notes: IgG
B6: humanized GPC1-ADC (MMAE) (antibody, V domains shown)
VH: B1 VH
VL: B1 VL
modifications: MC-vc-PAB-MMAE linked by maleimide to cysteines of the reduced interchain disulfide bonds; DAR 4.0 for the whole antibody
notes: also called humanized anti-GPC1-ADC; humanized anti-GPC1-ADC (MMAE)
B7: human/mouse chimeric anti-GPC1 antibody (clone 01a033) (antibody, human IgG4 S228P, kappa, V domains shown)
VH: QVQLKQSGPELVKPGASVKISCKASGYSFTGYYMHWVKQSPEKSLEWIGEINPSTGDTTYNQKFKAKATLTVDKSSSTAYMQLKSLTSEDSAVYYCAREKRDDGVFAYWGQGTLVTVSS
VL: DIVMSQSPKSMSMSVGERVALSCKASENVGTYVSWYQQKPEQSPKLLIYGASNRYTGVPDRFTGSGSATDFTLTISSVQAEDLADYYCGQSYSYPLTFGAGTKLELKR
notes: also called chimeric mouse antibody (01a033); anti-GPC-1 chimeric antibody (01a033)
B8: anti-GPC-1 mouse monoclonal antibody 01a033 (antibody, V domains shown)
VH: B7 VH
VL: DIVMSQSPKSMSMSVGERVALSCKASENVGTYVSWYQQKPEQSPKLLIYGASNRYTGVPDRFTGSGSATDFTLTISSVQAEDLADYYCGQSYSYPLTFGAGTKLELK
notes: Mouse monoclonal antibody; also called mouse antibody (01a033); mouse anti-GPC1 antibody (clone 01a033)

Assays:
[1] = target: T1, human GPC1 on the surface of …; assay: flow cytometry on TE8 cells, antibody titration, FITC anti-human IgG as secondary antibody
Protocol: (§1) The measurement was performed with FACS CantoII (BD) using the human/mouse chimeric anti-GPC1 antibody (clone 01a033) and the humanized anti-GPC1 antibody (clone T2) as primary antibodies at various concentrations and FITC labeled anti-human-IgG-FITC (Jackson Immuno Research, Catalog No. 109-095-098) as a secondary antibody, and the measurement data were analyzed using BD FACS Diva Software (BD).

[2] = target: T1, human GPC1 on the surface of …; assay: flow cytometry on BxPC3 cells, antibody titration, FITC anti-human IgG as secondary antibody
Protocol: as §1, with “In the FACS analysis using the antibody, cells of human pancreatic cancer cell line (BxPC-3) were used as GPC1-positive cells. The” for “The”, “the” for “the human/mouse chimeric anti-GPC1 antibody (clone 01a033) and the”, “T2) and the humanized GPC1-ADC (MMAE)” for “T2)”
The influence of conjugation of a payload with the humanized anti-GPC1 antibody (T2) on the antigen affinity was evaluated by analyzing the antibody concentration-dependent binding ability with FACS using GPC1 expression-positive BxPC3 cells.

[3] = target: T2, recombinant human GPC1 protein (R&D …); assay: SPR (Biacore 8K); antibody captured by anti-human IgG (Fc) on a CM5 chip, recombinant human GPC1 flowed over
Protocol: The mouse anti-human-GPC1 monoclonal antibody was humanized (subclass: IgG4), and the obtained twenty clones (T1, T2, T3, T7, T8, T10, T11, T22, T26, T28, T29, T31, T32, T33, T34, T36, T43, T56, T57, T59) were prepared. An anti-human IgG (Fc) was immobilized on an sCM5 sensor chip (GE Healthcare) using Human antibody capture kit (GE Healthcare), and the affinity of each of these clones to a recombinant human GPC1 protein (R&D Systems) was measured using Biacore (registered trademark) 8K (GE Healthcare).

[4] = target: T1, human GPC1 on the surface of …; assay: cell-based or functional assay
[5] = target: T1, human GPC1 on the surface of …; assay: cell-based or functional assay; remark: listed apart in the source
MC38-mGPC1 [6] = target: T3, MC38-mGPC1; assay: cell-based or functional assay
[7] = target: T1, human GPC1 on the surface of …; assay: cell-based or functional assay; remark: listed apart in the source
[8] = target: T2, recombinant human GPC1 protein (R&D …); assay: SPR (Biacore 8K); antibody captured by anti-mouse-Fc antibody on the chip, human GPC-1 flowed over
Protocol: The binding affinity of the mouse antibody to human GPC-1 was measured through surface plasmon resonance technique (Biacore (registered trademark) 8K). An anti-mouse-Fc antibody was immobilized on a chip, and the mouse antibody (01a033) was flowed thereon and allowed to bind thereto. After washing, the human GPC-1 was flowed thereon, and the binding constant (Ka) and the dissociation constant (Kd) were measured.

MC38-mGPC1 [9] = target: T3, MC38-mGPC1; assay: flow cytometry on MC38-mGPC1 cells (the sheet names clone 01a033 and mIgG2a; paragraph 327 names clone T2 with FITC anti-human IgG)

Binder	Kd [3] [nM]	koff [3] [s⁻¹]	kon [3] [M⁻¹ s⁻¹]	IC50 of cytotoxicity on TE14 cells (ATP cell viability, 144 h) with MMAF-linked anti-human-IgG Fab as secondary antibody [4] [nM]	also measured
B1	5.2	0.00125	240000	0.0361	Kd [1]: 1.89 nM; Kd [2]: 0.529 nM
B2	102	0.0135	132000	0.0459	
B3	6.93	0.0018	259000	0.0501	
B4	5.07	0.00118	234000	0.0379	
B5	9.8	0.00227	231000	0.0459	
B6					Kd [2]: 0.57 nM; IC50 of growth inhibition of Ho-1-u-1 cells (in-vitro ADC assay, CellTiter-Glo, 144 h) [5]: 0.329 nM; IC50 of growth inhibition of KON cells (in-vitro ADC assay, CellTiter-Glo, 144 h) [5]: 0.153 nM; IC50 of growth inhibition of MC38-mGPC1 cells (in-vitro ADC assay) (MC38-mGPC1 [6]): 2.29 nM; IC50 of growth inhibition of Detroit562 cells (in-vitro ADC assay, CellTiter-Glo, 144 h) [7]: 0.724 nM; IC50 of growth inhibition of FaDu cells (in-vitro ADC assay, CellTiter-Glo, 144 h) [7]: 0.3 nM; IC50 of growth inhibition of HeLa cells (in-vitro ADC assay, CellTiter-Glo, 144 h) [7]: 0.259 nM
B7	10.2	0.00309	302000	0.071	Kd [1]: 2.38 nM
B8					Kd [8]: 31.6 nM; koff [8]: 0.00388 s⁻¹; kon [8]: 123000 M⁻¹ s⁻¹; binding result (MC38-mGPC1 [9]): binds
